# doi:10.1101/2019.12.26.888982 (bioRxiv, 2019)
# Biological target: the molecule itself
# Assay: cryo-EM structure
protein,measurement,value
"Human TRPA1 (N-terminal-tagged MBP-TRPA1), unmodified (apo or with the antagonist A-967079) (natural protein) MKRSLRKMWRPGEKKEPQGVVYEDVPDDTEDFKESLKVVFEGSAYGLQNFNKQKKLKRCDDMDTFFLHYAAAEGQIELMEKITRDSSLEVLHEMDDYGNTPLHCAVEKNQIESVKFLLSRGANPNLRNFNMMAPLHIAVQGMNNEVMKVLLEHRTIDVNLEGENGNTAVIIACTTNNSEALQILLKKGAKPCKSNKWGCFPIHQAAFSGSKECMEIILRFGEEHGYSRQLHINFMNNGKATPLHLAVQNGDLEMIKMCLDNGAQIDPVEKGRCTAIHFAATQGATEIVKLMISSYSGSVDIVNTTDGCHETMLHRASLFDHHELADYLISVGADINKIDSEGRSPLILATASASWNIVNLLLSKGAQVDIKDNFGRNFLHLTVQQPYGLKNLRPEFMQMQQIKELVMDEDNDGCTPLHYACRQGGPGSVNNLLGFNVSIHSKSKDKKSPLHFAASYGRINTCQRLLQDISDTRLLNEGDLHGMTPLHLAAKNGHDKVVQLLLKKGALFLSDHNGWTALHHASMGGYTQTMKVILDTNLKCTDRLDEDGNTALHFAAREGHAKAVALLLSHNADIVLNKQQASFLHLALHNKRKEVVLTIIRSKRWDECLKIFSHNSPGNKCPITEMIEYLPECMKVLLDFCMLHSTEDKSCRDYYIEYNFKYLQCPLEFTKKTPTQDVIYEPLTALNAMVQNNRIELLNHPVCKEYLLMKWLAYGFRAHMMNLGSYCLGLIPMTILVVNIKPGMAFNSTGIINETSDHSEILDTTNSYLIKTCMILVFLSSIFGYCKEAGQIFQQKRNYFMDISNVLEWIIYTTGIIFVLPLFVEIPAHLQWQCGAIAVYFYWMNFLLYLQRFENCGIFIVMLEVILKTLLRSTVVFIFLLLAFGLSFYILLNLQDPFSSPLLSIIQTFSMMLGDINYRESFLEPYLRNELAHPVLSFAQLVSFTIFVPIVLMNLLIGLAVGDIAEVQKHASLKRIAMQVELHTSLEKKLPLWFLRKVDQKSTIVYPNKPRSGGMLFHIFCFLFCTGEIRQEIPNADKSLEMEILKQKYRLKDLTFLLEKQHELIKLIIQKMEIISETEDDDSHCSFQDRFKKEQMEQRNSRWNTVLRAVKAKTHHLEP",binding result,binds
"Human TRPA1 (MBP-TRPA1) modified with iodoacetamide (IA), activated state (natural protein, iodoacetamide covalent adduct at Cys621; weaker density at Cys665, which may reflect partial modification) MKRSLRKMWRPGEKKEPQGVVYEDVPDDTEDFKESLKVVFEGSAYGLQNFNKQKKLKRCDDMDTFFLHYAAAEGQIELMEKITRDSSLEVLHEMDDYGNTPLHCAVEKNQIESVKFLLSRGANPNLRNFNMMAPLHIAVQGMNNEVMKVLLEHRTIDVNLEGENGNTAVIIACTTNNSEALQILLKKGAKPCKSNKWGCFPIHQAAFSGSKECMEIILRFGEEHGYSRQLHINFMNNGKATPLHLAVQNGDLEMIKMCLDNGAQIDPVEKGRCTAIHFAATQGATEIVKLMISSYSGSVDIVNTTDGCHETMLHRASLFDHHELADYLISVGADINKIDSEGRSPLILATASASWNIVNLLLSKGAQVDIKDNFGRNFLHLTVQQPYGLKNLRPEFMQMQQIKELVMDEDNDGCTPLHYACRQGGPGSVNNLLGFNVSIHSKSKDKKSPLHFAASYGRINTCQRLLQDISDTRLLNEGDLHGMTPLHLAAKNGHDKVVQLLLKKGALFLSDHNGWTALHHASMGGYTQTMKVILDTNLKCTDRLDEDGNTALHFAAREGHAKAVALLLSHNADIVLNKQQASFLHLALHNKRKEVVLTIIRSKRWDECLKIFSHNSPGNKCPITEMIEYLPECMKVLLDFCMLHSTEDKSCRDYYIEYNFKYLQCPLEFTKKTPTQDVIYEPLTALNAMVQNNRIELLNHPVCKEYLLMKWLAYGFRAHMMNLGSYCLGLIPMTILVVNIKPGMAFNSTGIINETSDHSEILDTTNSYLIKTCMILVFLSSIFGYCKEAGQIFQQKRNYFMDISNVLEWIIYTTGIIFVLPLFVEIPAHLQWQCGAIAVYFYWMNFLLYLQRFENCGIFIVMLEVILKTLLRSTVVFIFLLLAFGLSFYILLNLQDPFSSPLLSIIQTFSMMLGDINYRESFLEPYLRNELAHPVLSFAQLVSFTIFVPIVLMNLLIGLAVGDIAEVQKHASLKRIAMQVELHTSLEKKLPLWFLRKVDQKSTIVYPNKPRSGGMLFHIFCFLFCTGEIRQEIPNADKSLEMEILKQKYRLKDLTFLLEKQHELIKLIIQKMEIISETEDDDSHCSFQDRFKKEQMEQRNSRWNTVLRAVKAKTHHLEP",binding result,binds
"Human TRPA1 (MBP-TRPA1) modified with BODIPY-iodoacetamide (BIA) (natural protein, BODIPY-IA (BIA) covalent adduct at Cys621) KRSLRKMWRPGEKKEPQGVVYEDVPDDTEDFKESLKVVFEGSAYGLQNFNKQKKLKRCDDMDTFFLHYAAAEGQIELMEKITRDSSLEVLHEMDDYGNTPLHCAVEKNQIESVKFLLSRGANPNLRNFNMMAPLHIAVQGMNNEVMKVLLEHRTIDVNLEGENGNTAVIIACTTNNSEALQILLKKGAKPCKSNKWGCFPIHQAAFSGSKECMEIILRFGEEHGYSRQLHINFMNNGKATPLHLAVQNGDLEMIKMCLDNGAQIDPVEKGRCTAIHFAATQGATEIVKLMISSYSGSVDIVNTTDGCHETMLHRASLFDHHELADYLISVGADINKIDSEGRSPLILATASASWNIVNLLLSKGAQVDIKDNFGRNFLHLTVQQPYGLKNLRPEFMQMQQIKELVMDEDNDGCTPLHYACRQGGPGSVNNLLGFNVSIHSKSKDKKSPLHFAASYGRINTCQRLLQDISDTRLLNEGDLHGMTPLHLAAKNGHDKVVQLLLKKGALFLSDHNGWTALHHASMGGYTQTMKVILDTNLKCTDRLDEDGNTALHFAAREGHAKAVALLLSHNADIVLNKQQASFLHLALHNKRKEVVLTIIRSKRWDECLKIFSHNSPGNKCPITEMIEYLPECMKVLLDFCMLHSTEDKSCRDYYIEYNFKYLQCPLEFTKKTPTQDVIYEPLTALNAMVQNNRIELLNHPVCKEYLLMKWLAYGFRAHMMNLGSYCLGLIPMTILVVNIKPGMAFNSTGIINETSDHSEILDTTNSYLIKTCMILVFLSSIFGYCKEAGQIFQQKRNYFMDISNVLEWIIYTTGIIFVLPLFVEIPAHLQWQCGAIAVYFYWMNFLLYLQRFENCGIFIVMLEVILKTLLRSTVVFIFLLLAFGLSFYILLNLQDPFSSPLLSIIQTFSMMLGDINYRESFLEPYLRNELAHPVLSFAQLVSFTIFVPIVLMNLLIGLAVGDIAEVQKHASLKRIAMQVELHTSLEKKLPLWFLRKVDQKSTIVYPNKPRSGGMLFHIFCFLFCTGEIRQEIPNADKSLEMEILKQKYRLKDLTFLLEKQHELIKLIIQKMEIISETEDDDSHCSFQDRFKKEQMEQRNSRWNTVLRAVKAKTHHLEP",binding result,binds
